The values that follow come from patent US20240352121A1, “LAIR-1 AGONISTIC ANTIBODIES AND METHODS OF USE THEREOF” (NEXTCURE, INC., priority 2023, published 2024).

The subject of one series is healthy CD34+ cells. The experiment in a line: NC525 clustering of LAIR-1 in healthy CD34+ cells. The format is cell-based, human.
Series [1] relates to healthy T cells or NK cells. The experiment in a line: Ex vivo killing of T cells or NK cells of a VEN/AZA-treated AML patient. Format: cell-based, human. As to conditions: same patient sample. As for the experimental part:
Ex vivo killing of VEN/AZA-treated AML patient leukemic cells (FIG. 7A) or T cells or NK cells (FIG. 7B). Values normalized to vehicle control. Lines represent linear regression of NC525 concentration versus normalized cell killing. […] FIGS. 7D and 7E show in vivo leukemic growth as measured by whole-body luminescence of MV4-11-luciferase cells (FIG. 7D) or survival (FIG. 7E) of CDX mice treated with 10 mg/kg isotype control (gray) or NC525 (red) or 100 mg/kg VEN (pink) or 0.5 mg/kg AZA (blue) or combination therapy (green or yellow, respectively). BLoD, below limit of detection. n=9 mice per group. P values determined by 2-way ANOVA or log-rank (Mantel-Cox) test, respectively. FIGS. 7F and 7G show leukemic growth in the blood (FIG. 7F) and in the spleen and BM (FIG. 7G) at week 8 after transplant of AML PDX mice treated with vehicle (gray), VEN/AZA (blue), NC525 (red), or VEN/AZA plus NC525 (green). n=5-10 mice per group. AML cells in spleen and BM compared from 4-5 mice per group. Data are shown as the mean±SEM. P values determined by 2-way ANOVA or 1-way ANOVA with multiple comparisons.

The test system of another series is THP-1 cells. Description: THP-1-luciferase cell-derived xenograft (CDX) model. The format is in vivo, NSG mice. Conditions: 10 mg/kg i.p. twice a week. As for the experimental part:
FIGS. 29A-29C display h11B3 LAIR-1 mAbs, containing a variable light chain of SEQ ID NO: 16 and a variable heavy chain of SEQ ID NO:27, limits Leukemic cell growth in CDX Models. 2e6 luciferase-expressing MV4-11-Luc or THP-1-Luc cells were suspended in sterile PBS and implanted into NSG mice via tail-vein injection. Starting on day 8 post-challenge, mice were treated twice-weekly by intraperitoneal (i.p.) injection of 10 mg/kg of h11B3 LAIR-1 mAbs, containing a variable light chain of SEQ ID NO: 16 and a variable heavy chain of SEQ ID NO:27, or isotype (FIG. 29A). AML cell proliferation was monitored by weekly i.p. injection of D-Luciferin, immediately followed by IVIS bioluminescent imaging and quantification of luminescent signal. Mice NOD.Cg-Prkdcscid Il2rgtm1Wjl/SzJ (NSG) purchased from Jackson Labs strain #005557. Substrate Xenolight RediJect D-Luciferin Perkin Elmore Cat #770504. Imaging Perkin Elmore IVIS Lumina XRMS Series III.
NSG mice were injected with 2e6 THP-1 luciferase cells or 2e6 MV4-11-luciferase cells via tail vein injection. Leukemia progression was quantified by i.p. injection of 100 μL bioluminescent substrate and IVIS imaging 8 minutes post injection. Progression was assessed weekly staring on Day 7 post-challenge. […] Tumor growth was measured by calipers twice weekly until end point.

The subject of series [2] is LSCs within the bone-marrow of PDX donor animals. The experiment in a line: PDX secondary transplant model. Format: in vivo, NSG-SGM3 mice. Conditions: bone-marrow from PDX donors treated for 4 weeks; no further treatment. As for the experimental part:
Newborn (3-5 day from birth) NSG-SGM3 pups were sub-lethally (200 cGy) irradiated. 12 hours post-irradiation, mice were intra-hepatically transplanted with 0.2e6 AML bone-marrow cells or normal CD34 HSCs from cryopreserved stocks. 6 weeks post-transplant, blood was collected to assess engraftment of progenitor cells via flow cytometry, staining for human CD45, human CD33, and human CD3. Once engraftment of human cells was confirmed, 5 mg/kg of anti-human LAIR-1 mAb or isotype control was intraperitoneally injected weekly for a total of 4 doses. At the indicated timepoints post-treatment, blood was collected to assess the proliferation of AML cells as a measure of LAIR-1 mAb anti-leukemic activity as compared to isotype control. For standard-of-care combination studies, PDX mice were treated with 20 mg/kg venetoclax 5 days on and 2 days off for 5 weeks, and X 1.5 mg/kf-tiw azacytidine upfront one week only. LAIR-1 mAb was treated i.p. once per week for 5 weeks. Blood was harvested as described above to measure leukemic growth and spleens were harvested at endpoint and weighed for assessment of splenomegaly. For secondary transplant studies, mice were engrafted as above. […] Leukemia progression in recipient mice was measured by flow cytometry by quantifying the percent of human CD33^+ human CD45^+ cells in peripheral blood at weeks 4, 6, and 10 weeks post-transplant.

B1: LAIR-1 mAb: humanized agonist anti-LAIR-1 mAb, IgG1 backbone; h11B3 VL-2 (SEQ ID NO: 16), h11B3 VH-3 (SEQ ID NO: 27) (antibody, V domains shown)
VH: EVQLVESGGGLVQPGGSLKLSCAASGFTFNTNAMYWVRQAPGKGLEWVGRIRSKSSNYATYYAASVKGRFTISRDDSKNTLYLQMNSLKTEDTAVYYCVRGGSGFFAYWGQGTLVTVSS
VL: DIQMTQSPSSLSASLGDRVTITCKASEDIYIRLAWYQQKPGKAPRLLISTATSLETGVPSRFSGSGSGTDYTFTISSLQPEDIATYYCQQYWSTPYTFGGGTRLEIK
modifications: IgG1 constant regions; Synthetic: h11B3 VH-3; Synthetic: h11B3 VL-2
Regarding B1, the “changes in signaling activity” value in the series on healthy CD34+ cells is recorded as “minimal changes”. The “impact on healthy T cells or NK cells” value in series [1] is “no impact”. Further, the “leukemic cell growth in vivo” value in the series with THP-1 cells is given as “inhibited leukemic cell growth”. Further, the “disease development in secondary recipient mice” value in series [2] is “developed no disease”.
